Assay results as given in PMC8850660, “The P300 acetyltransferase inhibitor C646 promotes membrane translocation of insulin receptor protein substrate and interaction with the insulin receptor” (The Journal of Biological Chemistry, 2022).

Target: unphosphorylated beta subunit of the insulin receptor (IRβ), recombinant (UniProt P06213)
Assay: SPR; Biacore T200, unphosphorylated IRβ immobilised on a CM5 chip; same amounts of IRS1 or IRS2 injected together with different (nM) concentrations of C646; HBS-P buffer (10 mM Hepes, 150 mM NaCl, 0.05% P20, pH 7.4), 30 μl/min, 25 °C; global fit to 1:1 Langmuir model

Sequence of unphosphorylated beta subunit of the insulin receptor (IRβ), recombinant (P06213 763-1382): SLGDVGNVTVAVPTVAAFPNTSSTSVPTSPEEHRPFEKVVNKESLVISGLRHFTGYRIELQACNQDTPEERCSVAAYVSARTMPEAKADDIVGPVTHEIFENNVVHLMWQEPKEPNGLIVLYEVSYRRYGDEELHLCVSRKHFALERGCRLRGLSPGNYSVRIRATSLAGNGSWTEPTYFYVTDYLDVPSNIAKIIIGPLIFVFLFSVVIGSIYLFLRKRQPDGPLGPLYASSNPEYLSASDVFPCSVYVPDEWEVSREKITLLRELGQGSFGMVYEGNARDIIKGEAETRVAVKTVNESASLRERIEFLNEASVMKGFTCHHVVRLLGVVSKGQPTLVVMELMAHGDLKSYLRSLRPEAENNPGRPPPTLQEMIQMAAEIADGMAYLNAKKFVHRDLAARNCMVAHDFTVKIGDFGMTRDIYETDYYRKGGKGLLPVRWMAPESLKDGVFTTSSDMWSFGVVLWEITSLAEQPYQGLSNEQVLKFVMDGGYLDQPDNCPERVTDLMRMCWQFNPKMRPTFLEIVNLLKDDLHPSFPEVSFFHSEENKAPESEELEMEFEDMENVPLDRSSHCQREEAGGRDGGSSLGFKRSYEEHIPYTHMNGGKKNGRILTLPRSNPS

purified IRS1 protein (insulin receptor substrate 1) (from UniProt P35569 1-1233) (natural protein)
KD with C646: 2.86e-13

purified IRS2 protein (insulin receptor substrate 2) (from UniProt P81122 1-1321) (natural protein)
KD with C646: 7.6e-12
